# In patent US20210380664A1:
# Legend:
# [1] = target: HCMV virus particles, strain TB40/E; test: immunofluorescence: intensity of anti-human Fc staining per virus particle on HFFs at different PDGFR-alpha-Fc concentrations
# [2] = target: HCMV virus particles, strain TB40/E; test: cell-based or functional assay
substance,measurement,setting,value
soluble PDGFR-alpha-Fc chimera (R&D 6765-PR-050) (Fc fusion),EC50,[1],0.108 µg/mL
same,EC50 of inhibition of infection of HECs (IE antigen staining),[2],0.02 to 0.05 µg/mL
same,EC50 of inhibition of infection of HFFs (IE antigen staining),[2],0.01 to 0.02 µg/mL
same,complete abrogation of infection of HFFs,[2],200 ng/mL
same,"infectivity of already adsorbed virus on HFFs (200 ng/ml, post adsorption)",[2],50%
same,reduction of adsorption of pre-treated virus particles to HECs (100 ng/ml),[2],75%
same,reduction of adsorption of pre-treated virus particles to HFFs (100 ng/ml),[2],50%
same,reduction of penetration of pre-treated virus particles into HFFs (100 ng/ml),[2],75%
